Test results taken from patent US20260061072A1.

Biological target: Human Leukocyte Antigen (HLA) on the surface of human cells (human)
Experiment: cell-based or functional assay

Substance: anti-HLA monoclonal antibody clone W6/32 (mouse, ThermoFisher)
- antibody concentration of highest luciferase transduction of SKBR3 cells: 10 µg/mL
